One block for each binder: values may come before it.
How the values were obtained:
[1] = molecular target: T1, human hepsin (recombinant EE-tagged, amino acids 45-417, enzymatically active two-chain form) (human, UniProt P05981 45-417); test: SPR kinetics, antibody captured on CM5 chip, hepsin injected, 298 K
T1 construct: range 45-417; The assays say only 'hepsin' or 'purified human hepsin'; also called hHepsin; purified hepsin

[2] = molecular target: T1, human hepsin (recombinant EE-tagged, …); test: Biacore (SPR)
mouse hepsin = mouse hepsin (mouse, UniProt O35453 60-436, limits assumed); test: cell-based or functional assay
Sequence of mouse hepsin (O35453 60-436 limits assumed): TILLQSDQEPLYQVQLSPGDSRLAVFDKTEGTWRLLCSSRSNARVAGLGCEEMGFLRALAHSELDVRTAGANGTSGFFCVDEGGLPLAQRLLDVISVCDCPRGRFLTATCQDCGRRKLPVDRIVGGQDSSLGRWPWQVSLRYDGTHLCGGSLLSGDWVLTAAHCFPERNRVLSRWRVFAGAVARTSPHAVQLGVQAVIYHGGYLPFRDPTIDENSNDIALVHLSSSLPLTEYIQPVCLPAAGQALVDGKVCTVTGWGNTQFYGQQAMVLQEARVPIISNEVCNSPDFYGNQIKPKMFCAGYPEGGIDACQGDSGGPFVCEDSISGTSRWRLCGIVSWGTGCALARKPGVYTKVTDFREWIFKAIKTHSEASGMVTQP

[3] = molecular target: T1, human hepsin (recombinant EE-tagged, …); test: cell-based or functional assay
[4] = molecular target: T1, human hepsin (recombinant EE-tagged, …); test: enzyme kinetics (Ac-KQLR-AMC hydrolysis after preincubation), fit to tight binding inhibitor equations of the mixed type; apparent Ki
cynomolgus hepsin = cynomolgus hepsin (cynomolgus monkey); test: cell-based or functional assay

T1 sequence (P05981 other isoform, or with tags, fused parts or gaps limits assumed): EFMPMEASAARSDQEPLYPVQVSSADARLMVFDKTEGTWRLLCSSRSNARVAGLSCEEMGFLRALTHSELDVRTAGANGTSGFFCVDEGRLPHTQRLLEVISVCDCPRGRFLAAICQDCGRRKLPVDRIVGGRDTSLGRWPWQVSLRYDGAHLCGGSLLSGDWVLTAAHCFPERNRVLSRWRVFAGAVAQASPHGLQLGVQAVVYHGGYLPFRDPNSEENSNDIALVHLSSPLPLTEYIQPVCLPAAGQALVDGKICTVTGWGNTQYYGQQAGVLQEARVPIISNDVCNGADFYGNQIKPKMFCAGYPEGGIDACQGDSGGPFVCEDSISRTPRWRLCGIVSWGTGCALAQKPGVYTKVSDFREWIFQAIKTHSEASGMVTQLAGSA

Kd [1]: 31.5 nM | Kd [2]: 4 nM | IC 50 in enzymatic activity assay of murine hepsin (mouse hepsin): > 200 nM | IC 50 in enzymatic activity assay of human hepsin [3]: 14 nM
B1: Mab 2.7.35 (antibody, V domains shown)
VH: QIQLVQSGPELKKPGETVKISCKASGYTFTDYSMRWVKQAPGKGLKWMGWINTETGNPTYADDFKGRFAFSLETSASTAYLQINNLKNEDTARYFCARGFAYWGQGTLVTVSA
VL: QAVVTQESALTTSPGETVTLTCRSSTGAVTTSNYANWVQEKPDHLFTGLIGDTNNRAPGVPARFSGSLIGDKAALTITGAQTEDEAIYFCALWYSNHFIFGSGTKVTVL
notes: Mouse monoclonal antibody from Balb/c hybridoma; also called mouse Mab 2.7.35; mH35

Ki [4]: 0.39 nM | Kd [1]: 7.1 nM | IC 50, cynomolgous hepsin assay (FRET peptide substrate) (cynomolgus hepsin): 0.99 nM | IC 50, human hepsin inhibition assay (FRET peptide substrate) [3]: 1.02 nM | inhibition increase compared to the chimeric antibody [3]: 6.7 fold | inhibition increase compared to the murine antibody [3]: 14.7 fold
B2: Mab55 (antibody, V domains shown)
VH: QVQLVQSGSELKKPGASVKVSCKASGYTFTDYSMRWVRQAPGQGLEWMGWINTETGSPTYADDFKGRFVFSLDTSVSTAYLQISSLKAEDTAVYYCARGFAYWGQGTLVTVSS
VL: QTVVTQEPSLTVSPGGTVTLTCRSSTGAVTTSNYANWVQQKPGQAFRGLIGDTNNRAPWTPARFSGSLLGGKAALTLSGVQPEDEAEYYCALWYSNHFIFGSGTKVTVL
notes: Humanized variant of Mab 2.7.35, stably expressed in CHO; also called hH35; humanized antibody Mab55

Kd [1]: 36 nM
B3: Mab53 (antibody, V domains shown)
VH: QVQLVQSGAEVKKPGASVKVSCKASGYTFTDYSMRWVRQAPGQGLEWMGWINTETGNPAYAQKFQGRVTMTRDTSTSTVYMELSSLRSEDTAVYYCARGFAYWGQGTLVTVSS
VL: B2 VL
notes: Humanized variant of Mab 2.7.35

Kd [2]: 22 nM | IC 50 in enzymatic activity assay of human hepsin [3]: 7 nM
B4: Mab 2.3.35 (antibody, V domains shown)
VH: QVQLQQSGPELVKPGASVKVSCKASGYTFTDFVINWVKQRTGQGLEWIGEIYPRSNSIYSNEKFKGKATLTTDKSSNTAYMQVSSLTSEDSAVYFCARGSGDYAMDYWGQGTSVTVSS
VL: ENVLTQSPAIMSASPGEKVTMTCSASSSVTYMHWYQQKSSTSPKLWIYDTSKLASGVPGRFSGSGSGNSYSLTIRSMEAEDVATYFCFQGSGFPLTFGGGTKLEIK
notes: also called antibody 2.3.35
